Reference: PMC5397176

Molecular target: Cy3–Cy5 labeled nucleosome containing H3KC36me3 (human) (UniProt Q71DI3)
Assay: other fluorescence titration

Q: PHF1(2–87) (domain or fragment) was tested. Which Kd did it give?
A: 20 µM

Q: What about the S1/2 of the PHF1(2–87) titration at constant LexA of the same substance?
A: 16 µM
